These results are taken from patent US20250250357A1.

Experiment [1] deals with human MSLN-R3-3 polypeptide (human). The experiment is described as follows: ELISA; antibody 1 nM.
Experiment [2] deals with human MSLN full-length protein (NCBI: AAH09272.1) on stably transfected CHO-K1 or HEK293T cells (human) (UniProt Q13421). The experiment is described as follows: FACS on CHO-K1-hMSLN-2C8 cells; antibody […].
The target is the same in experiment [3]. The experiment can be described thus: FACS on CHO-K1-hMSLN-2C8 cells; antibody 4 nM.
Experiment [4] shares this target. The experiment can be described thus: FACS on CHO-K1-hMSLN-2C8 cells; antibody 20 nM.
Experiment [5] has the same target. The experiment is described as follows: FACS on CHO-K1-hMSLN-2C8 cells; antibody 0.8 nM.
Experiment [6] has the same target. The experiment is described as follows: FACS on CHO-K1-hMSLN-2C8 cells; antibody 100 nM.
The target is the same in experiment [7]. The experiment is described as follows: FACS on CHO-K1-hMSLN-2C8 cells; antibody 0.032 nM.
The target is the same in experiment [8]. The experiment can be described thus: FACS on CHO-K1-hMSLN-2C8 cells; antibody 0.0064 nM.
The target is the same in experiment [9]. The experiment is described as follows: FACS on CHO-K1-hMSLN-2C8 cells; antibody 0.00128 nM.
The target of experiment [10] is monkey MSLN full-length protein (NCBI: XP_028696439.1) expressed on HEK293T-monkey MSLN cells (monkey). The experiment is described as follows: FACS on HEK293T-monkey MSLN cells.
Experiment [11] addresses human MSLN on OVCAR3 tumor cells (human) (UniProt Q13421). The experiment is described as follows: FACS, OVCAR3 cells. For orientation: Flow cytometry measures light scatter and fluorescence of single cells or particles in a stream.
Experiment [12] deals with human MSLN-R3 protein (Met487-Ser606 of NCBI AAH09272.1) expressed on HEK293T-hMSLN-R3 cells (human) (UniProt Q13421). The experiment is described as follows: FACS on HEK293T-hMSLN-R3 cells.
Experiment [13] concerns the target human MSLN-R3-3 polypeptide (human). The experiment can be described thus: ELISA, coated antigen, antibody 1 nM. (ELISA stands for enzyme-linked immunosorbent assay.)
Experiment [14] shares this target. The experiment can be described thus: ELISA, coated antigen, antibody 10 nM.
For experiment [15] the target is unchanged. The experiment is described as follows: ELISA, coated antigen, antibody 0.1 nM.
The target is the same in experiment [16]. The experiment can be described thus: ELISA, coated antigen, antibody 100 nM.
For experiment [17] the target is unchanged. The experiment can be described thus: ELISA, coated antigen, antibody 0.01 nM.
Experiment [18] has the same target. The experiment can be described thus: ELISA, coated antigen, antibody 0.001 nM.
The target is the same in experiment [19]. The experiment is described as follows: ELISA, coated antigen, antibody 0.0001 nM.
Experiment [20] has the same target. The experiment can be described thus: ELISA, coated antigen, no antibody (blank).

Positions count from the first letter of the chain named.

human MSLN on OVCAR3 tumor cells (human), sequence (Q13421 other isoform, or with tags, fused parts or gaps): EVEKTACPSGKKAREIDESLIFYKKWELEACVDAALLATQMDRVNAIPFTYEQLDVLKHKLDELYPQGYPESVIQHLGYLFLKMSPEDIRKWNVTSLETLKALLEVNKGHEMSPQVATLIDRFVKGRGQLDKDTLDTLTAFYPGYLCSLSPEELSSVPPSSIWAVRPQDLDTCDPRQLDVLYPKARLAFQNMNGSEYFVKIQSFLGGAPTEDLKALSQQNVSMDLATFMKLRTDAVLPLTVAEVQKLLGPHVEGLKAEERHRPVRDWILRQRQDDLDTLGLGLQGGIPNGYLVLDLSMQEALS
human MSLN-R3 protein (Met487-Ser606 of NCBI AAH09272.1) expressed on HEK293T-hMSLN-R3 cells (human), sequence (Q13421 495-614): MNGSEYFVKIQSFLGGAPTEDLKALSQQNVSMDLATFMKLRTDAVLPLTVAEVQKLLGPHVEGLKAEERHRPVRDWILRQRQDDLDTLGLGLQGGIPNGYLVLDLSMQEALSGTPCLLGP

B1: Tab107 (YP3, hIgG1) (antibody, V domains shown)
VH: QEQLVESGGGLVQPGASLTLTCTASGIDFSRYYMCWVRQAPGKGLEGIACIYIGGSGSTYYASWAKGRFTISKASSTTVTLQMTSLTAADTATYFCARGTNLNYIFRLWGPGTLVTVSS
VL: DVVMTQTPSPVSAAVGGTVTIKCQASQSINNGLAWYQQKPGQPPRLLIYSASNLESGVPSRFKGSGSGTEFTLTISDLECDDAATYYCQCIWDGNSYVNAFGGGTEVVVRT
In [1], B1 had an OD450 nm of 0.07. The FACS fluorescence intensity in [2] came to 264; in [3], 2960; in experiment [4] it was 6930; in experiment [5], 767; in experiment [6], 7860; in [7], 120. Besides, the FACS fluorescence intensity in experiment [8] amounted to 70; in [9] it was 63.

B2: S009-F1.59.1 (antibody, human IgG1, kappa, V domains shown)
VH: EVKLEGSGGGLVQPGGSMMLSCVATGFTFSSYWMNWVRQSPDRGLEWVAEIRLKSNGFAAFYAESVKGRFTISRDDSKSSVYLQMNNLRTEDTGIYYCTYFVHWGQGILVTVSE
VL: DIVLTQSPTSLAVSLGQRATISCRTSESVEYFGTILIQWYQQKPGQPPKLLIFGASNVESGVPARFSGSGSGTDFSLNIHPVEEEDIAMYFCQQNRKVPYTFGGGTTLELKR
B2 came in with a Maximum mean fluorescence intensity in experiment [10] of 1420.

B3: F3.80.22-H17 (scFv, not shown: small tags and cut ends)
scFv: EVQLVQSGAEVKKPGATVKISCKVSGYTFTDYEIHWVQQAPGKGLEWMGAFDPEIGGSAYNQKFKDRVTITADKSTDTAYMELSSLRSEDTAVYYCTDYYGSSSGYFDVWGQGTTVTVSSGGGGSGGGGSGGGGSDIVMTQTPLSLPVTPGEPASISCRSSQSLEHNDGNTYLHWFLQKPGQSPQLLIYKVSNRFSGVPDRFSGSGSGTDFTLKISRVEAEDVGVYYCSQSTHVPFTFGQGTKLEIK
Take B3: the Maximum MFI in experiment [11] worked out at 456 MFI.

B4: S009-F1.62.9 (antibody, human IgG1, kappa, V domains shown)
VH: EVQLQQSGADLVKPGASVKLSCTVFGLNFKDTFMHWVRQRPEQGLEWIGRIDPANDNSIYGPKFQDKATITADTSSNTAYLHLSSLTSEDTAVYYCLYFDNWGHGTTLTVSS
VL: DIVMTQAASSEPVTPGESVSISCRSDKSLLHSNGHNYLYWFLQRPGQSPHLLIYRMSNLASGVPDRFSGSGSGTAFTLRISRVEAEDVGVYYCMQHLEYPLTFGAGTKLELKR
As to B4, in [10], the Maximum mean fluorescence intensity stood at 965.

B5: F3.80.22-H3 (scFv, not shown: small tags and cut ends)
scFv: DIVMTQTPLSLPVTPGEPASISCRSSQSLEHNNGNTYLHWFLQKPGQSPQLLIYKVSNRFSGVPDRFSGSGSGTDFTLKISRVEAEDVGVYYCSQSTHVPFTFGQGTKLEIKGGGGSGGGGSGGGGSEVQLVQSGAEVKKPGATVKISCKASGYTFTDYEIHWVQQAPGKGLEWMGAFDPEIGGSAYNQKFKDRVTITADKSTSTAYMELSSLRSEDTAVYYCTDYYGSSSGYFDVWGTGTTVTVSS
For B5, the Maximum MFI in [11] stood at 502 MFI.

B6: F3.80.22-H8 (scFv, not shown: small tags and cut ends)
scFv: B5 scFv with N33D, T203S
B6: the Maximum MFI in experiment [11] came to 502 MFI.

B7: F3.80.22-H6 (scFv, not shown: small tags and cut ends)
scFv: B5 scFv with N33D, T239Q
In [11], B7 gave a Maximum MFI of 473 MFI.

B8: F3.80.22-H4 (scFv, not shown: small tags and cut ends)
scFv: B5 scFv with T203S
In turn, B8 yielded a Maximum MFI in experiment [11] of 505 MFI.

B9: F3.80.22-H7 (scFv, not shown: small tags and cut ends)
scFv: B5 scFv with N33D
On to B9, for which the Maximum MFI in [11] turned out to be 479 MFI.

B10: S009-F2.47.1 (antibody, human IgG1, kappa, V domains shown)
VH: QVQLQQPGAELVKPGASVKLSCKASGYTFTSYWMHWVKQRPGQGLEWIGMIHPNSGSTNYNEKFKSKATLTVDKSSSTAYMQLSSLTSEDSAVYYCARPVVPYWYFDVWGTGTTVTVSS
VL: DIVMTQSQKFMSTTVGDRVSITCKASQNVGTAVAWYQQKPGQSPKLLIYSASNRYTGVPDRFTGSGSGTDFTLTISNMQSEDLADYFCQQSSSYPLTFGAGTKLELKR
Regarding B10, the Maximum mean fluorescence intensity in experiment [12] is 4580.

B11: Tab106 (YP218, hIgG1) (antibody, V domains shown)
VH: QQQLEESGGGLVKPEGSLTLTCKASGFDLGFYFYACWVRQAPGKGLEWIACIYTAGSGSTYYASWAKGRFTISKASSTTVTLQMTSLAAADTATYFCARSTANTRSTYYLNLWGPGTLVTVSS
VL: DVVMTQTPASVSEPVGGTVTIKCQASQRISSYLSWYQQKPGQRPKLLIFGASTLASGVPSRFKGSGSGTEYTLTISDLECADAATYYCQSYAYFDSNNWHAFGGGTEVVVRT
B11: in [1], the OD450 nm turned out to be 0.98. For the same molecule, the OD450 in [13] turned out to be 0.33; in experiment [14] it was 1.35; in experiment [15] it was 0.08; in experiment [16] it was 1.94; in experiment [17], 0.05; in experiment [18], 0.05. The OD450 is 0.06 in experiment [19] and 0.07 in experiment [20]. Also, the FACS fluorescence intensity in experiment [2] amounted to 270; in experiment [3], 2780; in [4], 6270; in experiment [5] it was 812; in experiment [6], 6720; in experiment [7], 119. The values for the FACS fluorescence intensity in experiment [8] and in experiment [9] were 77 and 68, respectively.

B12: F3.38.10-L2H3a (scFv, not shown: small tags and cut ends)
scFv: DIVMTQSPDSLAVSLGERATINCRSSQSLIHSDGNTYLQWYQQKPGQSPKLLIYKVSNRFSGVPDRFSGSGSGTDFTLTISSLQAEDVAVYYCSQTTHVPFTFGQGTKLEIKGGGGSGGGGSGGGGSEVQLVQSGAEVKKPGASVKVSCKASGYIFTDYYMNWVRQAPGQRLEWMGVINPKQGVISHNQKFKGRVTITVDKSANTAYMELSSLRSEDTAVYYCANYGSRFYAMDYWGQGTTVTVSS
As to B12, the Maximum MFI in experiment [11] was determined as 499 MFI.

B13: S009-F2.58.8 (antibody, human IgG1, kappa, V domains shown)
VH: QVQLLQSGAELAKPGASVKLSCKASGYTFTSYWVHWVKQRPGQGLEWIGYINPNSGYTKYNQKFKDKATLTADKSSSTAYMQLSSLTYEDSAVYYCADHYYGSSRDYFDYWGQGTTLTVSS
VL: QIVLTQSPAIMSASPGEKVTMTCSASSSVSYMYWYQQRPGSSPRLLIYDTSNLASGVPVRFSGSGSGTSYSLTISRMEAEDAATYYCQQWNSYPYTFGGGTKLEIKR
In experiment [10], B13 showed a Maximum mean fluorescence intensity of 1000.
